Measured values from IntAct's records for PubMed 34927784.

B1: Endosomal transmembrane epsin interactor 1 (Homo sapiens), Q15884 (parent)
chain: MILLVNLFVLLSVVCVLLNLAGFILGCQGAQFVSSVPRCDLVDLGEGKICFCCEEFQPAKCTDKENALKLFPVQPCSAVHLLLKKVLFALCALNALTTTVCLVAAALRYLQIFATRRSCIDESQISAEEAEDHGRIPDPDDFVPPVPPPSYFATFYSCTPRMNRRMVGPDVIPLPHIYGARIKGVEVFCPLDPPPPYEAVVSQMDQEQGSSFQMSEGSEAAVIPLDLGCTQVTQDGDIPNIPAEENASTSTPSSTLVRPIRSRRALPPLRTRSKSDPVLHPSEERAAPVLSCEAATQTERRLDLAAVTLRRGLRSRASRCRPRSLIDYKSYMDTKLLVARFLEQSSCTMTPDIHELVENIKSVLKSDEEHMEEAITSASFLEQIMAPLQPSTSRAHKLPSRRQPGLLHLQSCGDLHTFTPAGRPRAERRPRRVEAERPHSLIGVIRETVL

Key:
ITCH, Q96J02-2 [1] = variants of: B1; details: with ITCH
epn1_human EPN1, Q9Y6I3 = variants of: B1; details: with epn1_human EPN1, Q9Y6I3
ITCH, Q96J02-2 [2] = variants of: B1; details: with ITCH; remark: listed apart in the source
ITCH, Q96J02-2 [3] = variants of: B1; details: with ITCH; remark: listed apart in the source

Chain of ITCH, Q96J02-2 (Q96J02 other isoform, or with tags, fused parts or gaps): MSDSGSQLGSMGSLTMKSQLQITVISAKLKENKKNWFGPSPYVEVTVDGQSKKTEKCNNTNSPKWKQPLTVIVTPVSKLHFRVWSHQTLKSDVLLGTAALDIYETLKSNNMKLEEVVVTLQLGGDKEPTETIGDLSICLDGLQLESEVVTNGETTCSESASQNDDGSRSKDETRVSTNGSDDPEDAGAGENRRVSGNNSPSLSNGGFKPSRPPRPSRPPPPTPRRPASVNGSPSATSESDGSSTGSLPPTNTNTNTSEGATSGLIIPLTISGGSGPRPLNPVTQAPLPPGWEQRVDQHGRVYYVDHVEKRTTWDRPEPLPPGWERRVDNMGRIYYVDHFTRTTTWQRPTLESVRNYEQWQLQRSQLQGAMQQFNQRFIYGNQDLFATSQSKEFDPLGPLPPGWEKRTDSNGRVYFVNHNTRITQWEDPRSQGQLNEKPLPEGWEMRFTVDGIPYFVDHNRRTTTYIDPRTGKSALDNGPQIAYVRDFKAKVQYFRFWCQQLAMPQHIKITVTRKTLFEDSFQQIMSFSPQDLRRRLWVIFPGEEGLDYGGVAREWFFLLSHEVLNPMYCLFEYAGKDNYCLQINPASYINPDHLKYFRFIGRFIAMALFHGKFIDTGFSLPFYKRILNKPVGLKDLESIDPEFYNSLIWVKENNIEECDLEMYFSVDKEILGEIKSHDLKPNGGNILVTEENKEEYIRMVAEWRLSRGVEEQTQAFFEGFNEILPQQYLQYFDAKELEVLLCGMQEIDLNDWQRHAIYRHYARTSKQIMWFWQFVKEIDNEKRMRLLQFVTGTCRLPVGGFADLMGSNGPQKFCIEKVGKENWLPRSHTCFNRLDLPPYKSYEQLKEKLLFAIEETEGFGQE
Chain of epn1_human EPN1, Q9Y6I3 (Q9Y6I3 whole entry): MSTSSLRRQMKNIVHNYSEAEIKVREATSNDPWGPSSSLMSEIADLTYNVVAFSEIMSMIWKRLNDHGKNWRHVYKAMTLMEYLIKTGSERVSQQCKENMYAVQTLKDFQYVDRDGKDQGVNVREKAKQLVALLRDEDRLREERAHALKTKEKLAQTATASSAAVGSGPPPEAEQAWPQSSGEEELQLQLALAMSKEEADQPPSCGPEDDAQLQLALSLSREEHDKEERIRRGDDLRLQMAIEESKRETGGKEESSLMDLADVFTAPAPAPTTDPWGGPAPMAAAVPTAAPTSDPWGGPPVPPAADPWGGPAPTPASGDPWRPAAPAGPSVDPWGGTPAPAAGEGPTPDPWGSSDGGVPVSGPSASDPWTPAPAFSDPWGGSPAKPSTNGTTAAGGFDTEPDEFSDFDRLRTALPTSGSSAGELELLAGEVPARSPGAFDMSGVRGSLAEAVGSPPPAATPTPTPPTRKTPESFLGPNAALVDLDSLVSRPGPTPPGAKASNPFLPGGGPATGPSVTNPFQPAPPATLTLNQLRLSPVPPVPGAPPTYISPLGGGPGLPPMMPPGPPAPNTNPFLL

effect of a mutation on the interaction (ITCH, Q96J02-2 [1])	effect of a mutation on the interaction (epn1_human EPN1, Q9Y6I3)	effect of a mutation on the interaction (ITCH, Q96J02-2 [2])	effect of a mutation on the interaction (ITCH, Q96J02-2 [3])	Variant
with no effect	–	–	–	MILLVNLFVLLSVVCVLLNLAGFILGCQGAQFVSSVPRCDLVDLGEGKICFCCEEFQPAKCTDKENALKLFPVQPCSAVHLLLKKVLFALCALNALTTTVCLVAAALRYLQIFATRRSCIDESQISAEEAEDHGRIPDPDDFVPPVPPPSAFATFYSCTPRMNRRMVGPDVIPLPHIYGARIKGVEVFCPLDPPPPYEAVVSQMDQEQGSSFQMSEGSEAAVIPLDLGCTQVTQDGDIPNIPAEENASTSTPSSTLVRPIRSRRALPPLRTRSKSDPVLHPSEERAAPVLSCEAATQTERRLDLAAVTLRRGLRSRASRCRPRSLIDYKSYMDTKLLVARFLEQSSCTMTPDIHELVENIKSVLKSDEEHMEEAITSASFLEQIMAPLQPSTSRAHKLPSRRQPGLLHLQSCGDLHTFTPAGRPRAERRPRRVEAERPHSLIGVIRETVL [Y151A]
decreasing interaction strength	–	–	–	MILLVNLFVLLSVVCVLLNLAGFILGCQGAQFVSSVPRCDLVDLGEGKICFCCEEFQPAKCTDKENALKLFPVQPCSAVHLLLKKVLFALCALNALTTTVCLVAAALRYLQIFATRRSCIDESQISAEEAEDHGRIPDPDDFVPPVPPPSYFATFYSCTPRMNRRMVGPDVIPLPHIYGARIKGVEVFCPLDPPPPAEAVVSQMDQEQGSSFQMSEGSEAAVIPLDLGCTQVTQDGDIPNIPAEENASTSTPSSTLVRPIRSRRALPPLRTRSKSDPVLHPSEERAAPVLSCEAATQTERRLDLAAVTLRRGLRSRASRCRPRSLIDYKSYMDTKLLVARFLEQSSCTMTPDIHELVENIKSVLKSDEEHMEEAITSASFLEQIMAPLQPSTSRAHKLPSRRQPGLLHLQSCGDLHTFTPAGRPRAERRPRRVEAERPHSLIGVIRETVL [Y197A]
decreasing interaction strength	with no effect	with no effect	disrupting interaction strength	MILLVNLFVLLSVVCVLLNLAGFILGCQGAQFVSSVPRCDLVDLGEGKICFCCEEFQPAKCTDKENALKLFPVQPCSAVHLLLKKVLFALCALNALTTTVCLVAAALRYLQIFATRRSCIDESQISAEEAEDHGRIPDPDDFVPPVPPPSAFATFYSCTPRMNRRMVGPDVIPLPHIYGARIKGVEVFCPLDPPPPAEAVVSQMDQEQGSSFQMSEGSEAAVIPLDLGCTQVTQDGDIPNIPAEENASTSTPSSTLVRPIRSRRALPPLRTRSKSDPVLHPSEERAAPVLSCEAATQTERRLDLAAVTLRRGLRSRASRCRPRSLIDYKSYMDTKLLVARFLEQSSCTMTPDIHELVENIKSVLKSDEEHMEEAITSASFLEQIMAPLQPSTSRAHKLPSRRQPGLLHLQSCGDLHTFTPAGRPRAERRPRRVEAERPHSLIGVIRETVL [Y151A;Y197A]
